Experimental data from the DeepSol protein solubility set.

Assay: soluble on expression in E. coli; label from the status in PepcDB or PDB records

| Sequence | soluble on expression in E. coli |
| --- | --- |
| MSLAIPRQKMPAQDPVERVGNFKEVNLGLTPEQAQQEALRCIQCKDPVCIAGCPVNIKIDQFIKLIAEGDFMGAVRKIKEDNVLPSICGRVCPQEDQCEKVCVIGKKHEPVAIGNLERFVGDYERTSGQKIDPKIAPPTGKKVAVVGSGPAGLSCANDLAQYGHKVVVFEALHELGGVLMYGIPEFRLPKEIVREELDGLRRMGIEFRTDVVVGRTITIDELMEEEGFDAVFIGVGAGLPWFMGIPGENLVGVLAANEFLTRVNLMKAYDFLKSSDTPVFDCKGKNVAVFGGGNTAMDAVRTAKRLGAEHAYIVYRRSEKEMPAREEEIHNAKEEGIEFLLLTTPLEFVGDEKAWLTGAKCQKMELGEPDDSGRRRPVPVEGSEYILPIDMAIISIGNGPNPLIHQTTPDIEVSKRETIVVDVNTMQTSKENVYAGGDIVTGGATVILAMGAGRKAAAAINEKLGGTAKNEGHHHHHH | soluble |
| SLETKVAARDLSSLLSHCEAPVAALTVTAFKCKASACSVAPAPGSNTGLGALMSMAQAAQGLQTFPNIGDGLSNALTTALKTTGCFKVMAREDFEDLRREAEAAGITLKSASADYLVTGAITSLAVGAKTQSFGGGFVPLVGAVSRSTKSANISIDVRLVDVKASEVKASQTFDVSNERSSWGAGGAGWGGSGALFGAASSTQSPELDSVANESVIQAANYIVTQVAGSAAIPPVAAITK | soluble |
| MAVVPIRIVGDPVLHTATTPVTVAADGSLPADLAQLIATMYDTMDAANGVGLAANQIGCSLRLFVYDCAADRAMTARRRGVVINPVLETSEIPETMPDPDTDDEGCLSVPGESFPTGRAKWARVTGLDADGSPVSIEGTGLFARMLQHETGHLDGFLYLDRLIGRYARNAKRAVKSHGWGVPGLSWLPGEDPDPFGH | soluble |
| MEEIIKPVSKELLKAELTEDRRLRMTNKSNNQIYIITHQNAPNVMREIGRLREIAFRAAGGGTGLSMDIDEYDTMEHPYKQLIVWNPEAEEILGGYRYLLGTDVRFDEAGAPILATSHMFHFSDAFIKEYLPQTIELGRSFVTLEYQSTRAGSKGLFALDNLWDGLGALTVVMPNVKYFFGKVTMYPSYHRRGRDMILYFLKKHFNDREELVTPMEPLILETSDEELRTLFCKDTFKEDYKILNTEIRKLGYNIPPLVNAYMSLSPTMRMFGTAINYEFGDVEETGILIAVDEILEDKRIRHIQTFIESHPDALKMPCESEGVFTPKVVTPQEGCCH | not soluble |
| SRAYDLVVIGAGSGGLEAGWNAASLHKKRVAVIDLQKHHGPPHYAALGGTCVNVGCVPKKLMVTGANYMDTIRESAGFGWELDRESVRPNWKALIAAKNKAVSGINDSYEGMFADTEGLTFHQGFGALQDNHTVLVRESADPNSAVLETLDTEYILLATGSWPQHLGIEGDDLCITSNEAFYLDEAPKRALCVGGGYISIEFAGIFNAYKARGGQVDLAYRGDMILRGFDSELRKQLTEQLRANGINVRTHENPAKVTKNADGTRHVVFESGAEADYDVVMLAIGRVPRSQTLQLEKAGVEVAKNGAIKVDAYSKTNVDNIYAIGDVTDRVMLTPVAINEGAAFVDTVFANKPRATDHTKVACAVFSIPPMGVCGYVEEDAAKKYDQVAVYESSFTPLMHNISGSTYKKFMVRIVTNHADGEVLGVHMLGDSSPEIIQSVAICLKMGAKISDFYNTIGVHPTSAEELCSMRTPAYFYEKGKRVEKIDSNL | soluble |
| MDLHADSLDGTRSGPGLPTSDTKASFEAHVREKFNRMVEAVDRTVEKRIDKLTKELAQKTAELLEVRAAFVQLTQKKQEVQRRERALNRQVDVAVEMIAVLRQRLTESEEELLRKEEEVVTFNHFLEAAAEKEVQGKARLQDFIENLLQRVELAEKQLEYYQSQQASGFVRDLSGHVLTDISSNRKPKCLSRGHPHSVCNHPDLKSHFHPKGRNHLKKAKDDRASMQPAKAIHEQAESSRDLCRPPKKGELLGFGRKGNIRPKMAKKKPTAIVNII | not soluble |
| MGSDKIHHHHHHKPGEVWPDDKGVHINAHGGGILRVGDTYYWFGEHKTEGSAGNLAQVGVHCYSSKDLYNWKDEGIALSVVPDDTTSHIVKGCVLERPKVIYNKKNDQYVMWFHLEPRGAGYSGALSGVAVSKNVAGPYSFVNAFRPNAGFWPVNVQELHKQPCTFSADLRFSGGELPAHPDSLNLLGRDQISGQMARDMNLFVDDDGIAYHIYSSEENSTLHISQLTDDYTSYSGKYARFFPGRFMEAPALFKQKGKYYLIMSGCTGWAPNAGRSAVASSIWGPWKELENPFRGENSEVSFYSQSTYVLPVPGHADRFIYMGDRWTPENAIDGRYIWLPIRFEGEQPVIEWRSEWSY | not soluble |
